From article doi:10.1101/2020.02.21.958371

T1: RMB1 MBD (Arabidopsis thaliana, UniProt F4I209 1-81)
T1 sequence: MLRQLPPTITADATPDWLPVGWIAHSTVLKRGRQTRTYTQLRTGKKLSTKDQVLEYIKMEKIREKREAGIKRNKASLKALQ

T2: RMB1 MBD W22G (Arabidopsis thaliana, UniProt F4I209 1-81, W22G)
T2 sequence: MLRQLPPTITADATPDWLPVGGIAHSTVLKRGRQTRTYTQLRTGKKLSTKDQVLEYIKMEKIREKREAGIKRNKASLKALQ

T3: RMB1 MBD K50T (Arabidopsis thaliana, UniProt F4I209 1-81, K50T)
T3 sequence: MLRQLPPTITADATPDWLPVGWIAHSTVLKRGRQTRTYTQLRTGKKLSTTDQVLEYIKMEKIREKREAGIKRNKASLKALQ

T4: RMB1 MBD T49A (Arabidopsis thaliana, UniProt F4I209 1-81, T49A)
T4 sequence: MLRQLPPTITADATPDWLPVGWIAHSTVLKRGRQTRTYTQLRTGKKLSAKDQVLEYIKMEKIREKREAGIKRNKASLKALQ

T5: RMB1 MBD Y38F (Arabidopsis thaliana, UniProt F4I209 1-81, Y38F)
T5 sequence: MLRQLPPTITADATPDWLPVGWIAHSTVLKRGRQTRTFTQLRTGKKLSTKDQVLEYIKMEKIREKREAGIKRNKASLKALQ


Legend:
Assay in all cases: MST
RMB1 MBD = target: T1, RMB1 MBD
RMB1 MBD W22G = target: T2, RMB1 MBD W22G
RMB1 MBD K50T = target: T3, RMB1 MBD K50T
RMB1 MBD T49A = target: T4, RMB1 MBD T49A
RMB1 MBD Y38F = target: T5, RMB1 MBD Y38F

Binder | Kd (RMB1 MBD) [nM] | Kd (RMB1 MBD W22G) [µM] | binding result (RMB1 MBD K50T) | Kd (RMB1 MBD T49A) [µM] | Kd (RMB1 MBD Y38F) [µM]
AT5G39160 mCG (dsDNA, 5mC at forward 8 and 48; reverse strand line not in material, its methylation unknown) DNA 1: TTTGGTACGGACTTTTAGTTACAAGAGAGCATTTAAACAAAAATGACCGGTAGATGGAA DNA 2: TTCCATCTACCGGTCATTTTTGTTTAAATGCTCTCTTGTAACTAAAAGTCCGTACCAAA | 1770 ± 700 | 13.3 ± 4.67 | no binding | 3.58 ± 2.07 | 2.15 ± 0.75
AT5G39160 mCHH (dsDNA, 5mC at forward 12, 22, 30, 38; reverse unmethylated) DNA 1: TTTGGTACGGACTTTTAGTTACAAGAGAGCATTTAAACAAAAATGACCGGTAGATGGAA DNA 2: TTCCATCTACCGGTCATTTTTGTTTAAATGCTCTCTTGTAACTAAAAGTCCGTACCAAA | 2860 ± 1210 | – | – | – | –
AT5G39160 mCHG (dsDNA, 5mC in CHG context; positions not in material (base sequence taken from Um probe)) DNA 1: TTTGGTACGGACTTTTAGTTACAAGAGAGCATTTAAACAAAAATGACCGGTAGATGGAA DNA 2: TTCCATCTACCGGTCATTTTTGTTTAAATGCTCTCTTGTAACTAAAAGTCCGTACCAAA | 3340 ± 270 | – | no binding | 4.11 ± 2.92 | 5.16 ± 2
